# Experimental data as given in article PMC4784862, “DNA Sequence Determinants Controlling Affinity, Stability and Shape of DNA Complexes Bound by the Nucleoid Protein Fis”.
# Key:
# Settings in all cases: protein: recombinant; chain copies: 2; label: 5'-32P
# [1] = target: T1, Fis WT (UniProt P0A6R3 1-98); assay: EMSA; t1/2 30 min; EMSA: 20 mM Hepes pH 7.5, 0.15 M NaCl, 5% glycerol, 0.5 mg/ml BSA, 1 mM EDTA, 1 mM DTT, 0.1 nM 32P 27 bp probe, 50 ug/ml poly dI/dC; temperature not stated
# [2] = target: T1, Fis WT; assay: EMSA; t1/2 25 min; EMSA: 20 mM Hepes pH 7.5, 0.15 M NaCl, 5% glycerol, 0.5 mg/ml BSA, 1 mM EDTA, 1 mM DTT, 0.1 nM 32P 27 bp probe, 50 ug/ml poly dI/dC; temperature not stated
# [3] = target: T1, Fis WT; assay: EMSA; t1/2 36 min; EMSA: 20 mM Hepes pH 7.5, 0.15 M NaCl, 5% glycerol, 0.5 mg/ml BSA, 1 mM EDTA, 1 mM DTT, 0.1 nM 32P 27 bp probe, 50 ug/ml poly dI/dC; temperature not stated
# [4] = target: T1, Fis WT; assay: EMSA; t1/2 44 min; EMSA: 20 mM Hepes pH 7.5, 0.15 M NaCl, 5% glycerol, 0.5 mg/ml BSA, 1 mM EDTA, 1 mM DTT, 0.1 nM 32P 27 bp probe, 50 ug/ml poly dI/dC; temperature not stated
# [5] = target: T1, Fis WT; assay: EMSA; t1/2 38 min; EMSA: 20 mM Hepes pH 7.5, 0.15 M NaCl, 5% glycerol, 0.5 mg/ml BSA, 1 mM EDTA, 1 mM DTT, 0.1 nM 32P 27 bp probe, 50 ug/ml poly dI/dC; temperature not stated
# T1 sequence (P0A6R3 whole entry): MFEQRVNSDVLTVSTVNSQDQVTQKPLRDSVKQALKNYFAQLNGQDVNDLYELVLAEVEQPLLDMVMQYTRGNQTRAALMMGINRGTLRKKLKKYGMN
binder,measurement,setting,value
F1±9C (dsDNA) DNA 1: AAATCTGTTTGAATTTTGAGCAGATTT DNA 2: AAATCTGCTCAAAATTCAAACAGATTT,Kd,[1],0.3 ± 0.1 nM
F1±9G (dsDNA) DNA 1: AAATGTGTTTGAATTTTGAGCACATTT DNA 2: AAATGTGCTCAAAATTCAAACACATTT,Kd,[2],0.6 ± 0.2 nM
F1±10A (dsDNA) DNA 1: AAAATTGTTTGAATTTTGAGCAATTTT DNA 2: AAAATTGCTCAAAATTCAAACAATTTT,Kd,[3],0.5 ± 0.1 nM
F1±10C (dsDNA) DNA 1: AAACTTGTTTGAATTTTGAGCAAGTTT DNA 2: AAACTTGCTCAAAATTCAAACAAGTTT,Kd,[4],0.3 ± 0.1 nM
F1±10G (dsDNA) DNA 1: AAAGTTGTTTGAATTTTGAGCAACTTT DNA 2: AAAGTTGCTCAAAATTCAAACAACTTT,Kd,[5],0.5 ± 0.1 nM
